This note sets out measurements from paper PMC6572841, “Structural basis for the inhibition of translation through eIF2α phosphorylation” (Nature Communications, 2019).

T1: eIF2Bε (Saccharomyces cerevisiae, UniProt P32501 1-712)
T1 construct: eIF2Bε, S. cerevisiae; Subunit of m2 as it stood in the eIF2B-eIF2(αP) complex; the ε-cat HEAT domain was not included in any model; also called eIF2B ε subunit; source: over-expressed in S. cerevisiae strain GP4109, purified as part of Flag-tagged eIF2B
T1 sequence: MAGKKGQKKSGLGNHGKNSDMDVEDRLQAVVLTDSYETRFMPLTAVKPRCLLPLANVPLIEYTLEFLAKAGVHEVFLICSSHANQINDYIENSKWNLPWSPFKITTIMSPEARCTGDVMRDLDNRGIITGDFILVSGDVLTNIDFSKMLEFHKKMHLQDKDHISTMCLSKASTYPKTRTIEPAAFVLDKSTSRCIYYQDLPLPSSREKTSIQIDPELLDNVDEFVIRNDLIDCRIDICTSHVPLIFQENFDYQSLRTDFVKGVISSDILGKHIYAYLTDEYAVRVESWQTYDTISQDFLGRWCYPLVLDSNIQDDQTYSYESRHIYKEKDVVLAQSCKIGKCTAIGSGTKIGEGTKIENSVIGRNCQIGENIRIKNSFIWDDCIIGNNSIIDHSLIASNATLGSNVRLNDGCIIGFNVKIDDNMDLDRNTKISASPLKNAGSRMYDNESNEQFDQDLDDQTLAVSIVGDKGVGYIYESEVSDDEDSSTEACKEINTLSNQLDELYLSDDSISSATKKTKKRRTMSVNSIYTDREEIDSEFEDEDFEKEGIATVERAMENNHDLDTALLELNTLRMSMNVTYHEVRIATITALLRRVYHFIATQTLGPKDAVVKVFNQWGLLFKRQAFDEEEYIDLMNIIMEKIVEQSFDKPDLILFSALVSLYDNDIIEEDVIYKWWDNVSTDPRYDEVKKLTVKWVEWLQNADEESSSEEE

T2: eIF2Bδ (Saccharomyces cerevisiae, UniProt P12754 1-651)
T2 construct: eIF2Bδ, S. cerevisiae; Subunit of m2 as it stood in the eIF2B-eIF2(αP) complex; also called eIF2B δ subunit; source: over-expressed in S. cerevisiae strain GP4109, purified as part of Flag-tagged eIF2B
T2 sequence: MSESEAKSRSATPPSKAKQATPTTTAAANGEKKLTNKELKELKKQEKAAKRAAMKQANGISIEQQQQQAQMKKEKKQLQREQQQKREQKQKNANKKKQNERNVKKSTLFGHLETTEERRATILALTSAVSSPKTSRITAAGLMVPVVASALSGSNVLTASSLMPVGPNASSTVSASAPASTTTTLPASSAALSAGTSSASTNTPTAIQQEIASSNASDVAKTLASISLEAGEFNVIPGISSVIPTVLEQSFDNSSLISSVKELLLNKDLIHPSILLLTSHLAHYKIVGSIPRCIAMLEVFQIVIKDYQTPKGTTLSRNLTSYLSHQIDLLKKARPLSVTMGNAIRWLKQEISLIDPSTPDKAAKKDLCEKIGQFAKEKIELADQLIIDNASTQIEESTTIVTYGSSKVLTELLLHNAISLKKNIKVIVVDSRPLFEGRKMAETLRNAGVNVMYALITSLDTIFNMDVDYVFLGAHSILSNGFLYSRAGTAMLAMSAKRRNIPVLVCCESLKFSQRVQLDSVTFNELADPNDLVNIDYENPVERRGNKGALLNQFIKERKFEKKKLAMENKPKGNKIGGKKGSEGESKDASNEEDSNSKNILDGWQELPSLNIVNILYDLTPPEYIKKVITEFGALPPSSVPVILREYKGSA

T3: eIF2Bβ (Saccharomyces cerevisiae, UniProt P32502 1-381)
T3 construct: eIF2Bβ, S. cerevisiae; Subunit of m2 as it stood in the eIF2B-eIF2(αP) complex; also called eIF2B β subunit; source: over-expressed in S. cerevisiae strain GP4109, purified as part of Flag-tagged eIF2B
T3 sequence: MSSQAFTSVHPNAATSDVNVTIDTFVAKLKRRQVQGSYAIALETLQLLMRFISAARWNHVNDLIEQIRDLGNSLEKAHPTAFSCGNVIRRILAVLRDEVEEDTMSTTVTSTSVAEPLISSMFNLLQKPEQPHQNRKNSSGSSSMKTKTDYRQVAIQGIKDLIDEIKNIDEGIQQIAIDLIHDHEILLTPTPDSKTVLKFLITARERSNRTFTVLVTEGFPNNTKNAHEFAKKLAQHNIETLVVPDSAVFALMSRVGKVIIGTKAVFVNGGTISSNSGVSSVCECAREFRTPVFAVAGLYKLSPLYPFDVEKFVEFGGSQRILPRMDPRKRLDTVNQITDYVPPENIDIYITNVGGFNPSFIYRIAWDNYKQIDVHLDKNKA

B1: eIF2Bγ (natural protein, Saccharomyces cerevisiae)
chain: MSIQAFVFCGKGSNLAPFTQPDFPFQTQNKDSTAATSGDKLNELVNSALDSTVINEFMQHSTRLPKALLPIGNRPMIEYVLDWCDQADFKEISVVAPVDEIELIESGLTSFLSLRKQQFELIYKALSNSNHSHHLQDPKKINFIPSKANSTGESLQKELLPRINGDFVILPCDFVTDIPPQVLVDQFRNRDDNNLAMTIYYKNSLDSSIDKKQQQKQKQQQFFTVYSENEDSERQPILLDVYSQRDVTKTKYLQIRSHLLWNYPNLTVSTKLLNSFIYFCSFELCQLLKLGPQSMSRQASFKDPFTGNQQQQNPPTTDDDEDRNHDDDDDYKPSATSIQPTYFKKKNDLILDPINCNKSLSKVFRDLSRRSWQHSKPREPIGIFILPNETLFIRANNLNAYMDANRFVLKIKSQTMFTKNIQIQSAAIGADAIVDPKCQISAHSNVKMSVLGTQANIGSRCRVAGSLLFPGVHLGDEVILENCIIGPMAKIGSKCKLSNCYIEGHYVVEPKNNFKGETLANVYLDEDEEDELIYDDSVIAGESEIAEETDSDDRSDEDSDDSEYTDEYEYEDDGLFER
notes: eIF2Bγ, S. cerevisiae; Subunit of m2 as it stood in the eIF2B-eIF2(αP) complex; also called eIF2B γ subunit; source: over-expressed in S. cerevisiae strain GP4109, purified as part of Flag-tagged eIF2B
B2: eIF2γ (natural protein, Saccharomyces cerevisiae, UniProt P32481 1-527, looked up)
chain: MSDLQDQEPSIIINGNLEPVGEPDIVEETEVVAQETQETQDADKPKKKVAFTGLEEDGETEEEKRKREFEEGGGLPEQPLNPDFSKLNPLSAEIINRQATINIGTIGHVAHGKSTVVRAISGVQTVRFKDELERNITIKLGYANAKIYKCQEPTCPEPDCYRSFKSDKEISPKCQRPGCPGRYKLVRHVSFVDCPGHDILMSTMLSGAAVMDAALLLIAGNESCPQPQTSEHLAAIEIMKLKHVIILQNKVDLMREESALEHQKSILKFIRGTIADGAPIVPISAQLKYNIDAVNEFIVKTIPVPPRDFMISPRLIVIRSFDVNKPGAEIEDLKGGVAGGSILNGVFKLGDEIEIRPGIVTKDDKGKIQCKPIFSNIVSLFAEQNDLKFAVPGGLIGVGTKVDPTLCRADRLVGQVVGAKGHLPNIYTDIEINYFLLRRLLGVKTDGQKQAKVRKLEPNEVLMVNIGSTATGARVVAVKADMARLQLTSPACTEINEKIALSRRIEKHWRLIGWATIKKGTTLEPIA
notes: eIF2γ, S. cerevisiae; Subunit of m1 as it stood in the eIF2B-eIF2(αP) complex; also called eIF2 γ subunit; source: purified from S. cerevisiae strain GP3511 as part of eIF2
B3: eIF2α phosphorylated at Ser51 (natural protein, Saccharomyces cerevisiae, UniProt P20459 1-304, looked up)
chain: MSTSHCRFYENKYPEIDDIVMVNVQQIAEMGAYVKLLEYDNIEGMILLSELSRRRIRSIQKLIRVGKNDVAVVLRVDKEKGYIDLSKRRVSSEDIIKCEEKYQKSKTVHSILRYCAEKFQIPLEELYKTIAWPLSRKFGHAYEAFKLSIIDETVWEGIEPPSKDVLDELKNYISKRLTPQAVKIRADVEVSCFSYEGIDAIKDALKSAEDMSTEQMQVKVKLVAAPLYVLTTQALDKQKGIEQLESAIEKITEVITKYGGVCNITMPPKAVTATEDAELQALLESKELDNRSDSEDDEDESDDE
modifications: phosphoserine at 51 (52 sequence numbering); measured by mass spectrometry to be 89.4%
notes: eIF2α, S. cerevisiae; Subunit of m1 as it stood in the eIF2B-eIF2(αP) complex; also called eIF2(αP) α subunit; source: purified from S. cerevisiae strain GP3511 as part of eIF2; phosphorylated in vitro by human PKR (Invitrogen)
B4: eIF2Bα (natural protein, Saccharomyces cerevisiae)
chain: MSEFNITETYLRFLEEDTEMTMPIAAIEALVTLLRIKTPETAAEMINTIKSSTEELIKSIPNSVSLRAGCDIFMRFVLRNLHLYGDWENCKQHLIENGQLFVSRAKKSRNKIAEIGVDFIADDDIILVHGYSRAVFSLLNHAANKFIRFRCVVTESRPSKQGNQLYTLLEQKGIPVTLIVDSAVGAVIDKVDKVFVGAEGVAESGGIINLVGTYSVGVLAHNARKPFYVVTESHKFVRMFPLSSDDLPMAGPPLDFTRRTDDLEDALRGPTIDYTAQEYITALITDLGVLTPSAVSEELIKMWYD
notes: eIF2Bα, S. cerevisiae; Subunit of m2 as it stood in the eIF2B-eIF2(αP) complex; also called eIF2B α subunit; source: over-expressed in S. cerevisiae strain GP4109, purified as part of Flag-tagged eIF2B
B5: eIF2β (natural protein, Saccharomyces cerevisiae, UniProt P09064 1-285, looked up)
chain: MSSDLAAELGFDPALKKKKKTKKVIPDDFDAAVNGKENGSGDDLFAGLKKKKKKSKSVSADAEAEKEPTDDIAEALGELSLKKKKKKTKDSSVDAFEKELAKAGLDNVDAESKEGTPSANSSIQQEVGLPYSELLSRFFNILRTNNPELAGDRSGPKFRIPPPVCLRDGKKTIFSNIQDIAEKLHRSPEHLIQYLFAELGTSGSVDGQKRLVIKGKFQSKQMENVLRRYILEYVTCKTCKSINTELKREQSNRLFFMVCKSCGSTRSVSSIKTGFQATVGKRRRM
notes: eIF2β, S. cerevisiae; Subunit of m1 as it stood in the eIF2B-eIF2(αP) complex; also called eIF2 β subunit; source: purified from S. cerevisiae strain GP3511 as part of eIF2

Common to all, as to assay: cryo-EM structure; eIF2(αP) with 2 mM GDP added to Flag-tagged eIF2B immobilised on Anti-Flag M2 gel, eluted with 3XFlag-peptide; 20 mM Hepes (pH 7.5), 100 mM KCl, 5 mM MgCl2, 5 mM β-ME; diluted to ~200 nM with 0.1% glutaraldehyde; six maps, 4.2 to 10.4 Å
Holding throughout (settings): both partners purified

The target in test [1] is T1, eIF2Bε.
The target in test [2] is B1.
In test [3] the target is T2, eIF2Bδ.
The target of test [4] is B4.
Test [5] deals with T3, eIF2Bβ.

As to B1, in test [1], the binding result is “binds”.
As for B2, in test [2], the binding result is “binds”.
Regarding B3, the binding result in test [3], in test [4] and in test [5] was “binds” in each case.
For the molecule B4, the binding result in test [5] was “binds”.
For the molecule B5, the binding result in test [1] and in test [2] was “binds” each time.
